According to doi:10.1101/2024.01.20.576400 (bioRxiv, 2024):

Target: T1, Pwl2 without the signal peptide (residues 22-145) (Magnaporthe oryzae, UniProt G5EI71 22-145)
T1 sequence: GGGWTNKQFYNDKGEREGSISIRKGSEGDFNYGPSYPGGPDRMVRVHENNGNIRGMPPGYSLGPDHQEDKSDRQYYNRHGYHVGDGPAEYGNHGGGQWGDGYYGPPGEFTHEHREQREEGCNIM
Assay: ITC

B1: HMA domain of OsHIPP43 (residues 26-101) (domain or fragment)
chain: RPLQTVNIKVKMDCEGCERRVKNAVKSMRGVTSVAVNPKQSRCTVTGYVEASKVLERVKSTGKAAEMWPYVPYTMT
- Kd: 191 nM
- dH: -67.6 kcal/mol
